The target in data set [1] is fibrin (clot formed from purified fibrinogen with α-thrombin) (UniProt P02671).
For a further data set, the target named is T1, α2-antiplasmin (UniProt P08697).
T1 sequence: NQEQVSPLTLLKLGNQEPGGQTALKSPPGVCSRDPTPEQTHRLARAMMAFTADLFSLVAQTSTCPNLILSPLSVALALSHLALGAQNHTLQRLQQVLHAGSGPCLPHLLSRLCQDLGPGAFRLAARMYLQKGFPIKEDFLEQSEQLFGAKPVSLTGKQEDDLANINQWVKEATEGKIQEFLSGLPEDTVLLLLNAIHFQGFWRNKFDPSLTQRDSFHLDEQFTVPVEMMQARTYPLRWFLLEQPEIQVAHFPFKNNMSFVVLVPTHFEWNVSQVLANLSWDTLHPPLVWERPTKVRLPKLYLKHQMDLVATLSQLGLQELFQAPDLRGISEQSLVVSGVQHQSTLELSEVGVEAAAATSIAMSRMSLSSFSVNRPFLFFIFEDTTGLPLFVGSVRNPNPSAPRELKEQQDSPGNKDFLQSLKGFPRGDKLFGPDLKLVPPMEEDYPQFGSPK

Sequence of fibrin (clot formed from purified fibrinogen with α-thrombin) (P02671 36-629, chain 1 of 3): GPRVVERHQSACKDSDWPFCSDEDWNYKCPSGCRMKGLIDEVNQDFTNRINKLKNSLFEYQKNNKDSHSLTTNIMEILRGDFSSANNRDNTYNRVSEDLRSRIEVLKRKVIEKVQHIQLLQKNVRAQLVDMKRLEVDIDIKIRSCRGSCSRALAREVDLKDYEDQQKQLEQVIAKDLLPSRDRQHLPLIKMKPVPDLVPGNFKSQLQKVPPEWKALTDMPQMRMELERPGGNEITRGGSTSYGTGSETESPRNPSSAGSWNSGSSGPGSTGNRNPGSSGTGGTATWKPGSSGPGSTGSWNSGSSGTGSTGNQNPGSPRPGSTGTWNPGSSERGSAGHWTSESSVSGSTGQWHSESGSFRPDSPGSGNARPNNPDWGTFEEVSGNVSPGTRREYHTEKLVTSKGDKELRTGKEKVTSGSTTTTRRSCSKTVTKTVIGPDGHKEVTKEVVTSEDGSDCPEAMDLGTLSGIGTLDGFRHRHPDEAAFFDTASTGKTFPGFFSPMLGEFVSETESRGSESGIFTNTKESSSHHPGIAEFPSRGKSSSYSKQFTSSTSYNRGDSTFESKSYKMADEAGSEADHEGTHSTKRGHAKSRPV
Sequence of fibrin (clot formed from purified fibrinogen with α-thrombin) (chain, as listed by the source, chain 2 of 3): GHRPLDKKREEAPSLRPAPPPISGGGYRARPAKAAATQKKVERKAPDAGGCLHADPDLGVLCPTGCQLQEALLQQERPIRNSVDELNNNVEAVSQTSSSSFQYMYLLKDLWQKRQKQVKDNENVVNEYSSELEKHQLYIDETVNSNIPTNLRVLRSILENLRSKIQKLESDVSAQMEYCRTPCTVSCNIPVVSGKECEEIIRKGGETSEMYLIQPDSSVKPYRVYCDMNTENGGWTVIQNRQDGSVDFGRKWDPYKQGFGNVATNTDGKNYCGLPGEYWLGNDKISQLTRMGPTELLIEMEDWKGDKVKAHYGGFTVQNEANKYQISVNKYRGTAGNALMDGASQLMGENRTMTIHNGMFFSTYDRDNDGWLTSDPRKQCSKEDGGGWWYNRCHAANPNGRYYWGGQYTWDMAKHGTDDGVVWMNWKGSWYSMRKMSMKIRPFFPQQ
Sequence of fibrin (clot formed from purified fibrinogen with α-thrombin) (chain, as listed by the source, chain 3 of 3): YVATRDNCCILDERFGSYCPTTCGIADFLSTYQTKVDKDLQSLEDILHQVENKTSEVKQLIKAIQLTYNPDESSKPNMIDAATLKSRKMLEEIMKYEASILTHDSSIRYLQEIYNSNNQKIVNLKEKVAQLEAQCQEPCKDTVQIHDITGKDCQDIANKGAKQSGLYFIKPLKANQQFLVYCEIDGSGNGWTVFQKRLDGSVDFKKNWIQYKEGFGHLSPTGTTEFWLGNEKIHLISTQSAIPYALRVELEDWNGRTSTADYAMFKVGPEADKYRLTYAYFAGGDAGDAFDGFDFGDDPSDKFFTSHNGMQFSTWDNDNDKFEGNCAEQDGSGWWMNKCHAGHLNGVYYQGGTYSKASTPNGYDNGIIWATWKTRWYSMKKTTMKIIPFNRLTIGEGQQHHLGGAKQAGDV

With “human reference plasmin (commercial, human-derived plasmin)”, the “fibrin clot lysis (decrease of turbidity at 340 nm), plasmin at 500, 250, 125 and 62 nM” value in data set [1] is given as “steeper slopes of the curves with increasing plasmin concentrations”. For the same substance, the “plasmin activity (S-2403 hydrolysis at 405 nm) after 30 minutes pre-incubation with α2-AP, plasmin:α2-AP molar ratio of 1:1” value in the data set with α2-antiplasmin is reported as “no plasmin activity was detected for human, BAP12-B2-150, or BAP01-B1-230 plasmin, indicating that the inhibition was complete”.
